Bridge positions count the residues as written; N and C are the ends. Square brackets hold non-standard residues; d marks the D form. Primed or numbered codes have the meaning given here. Ends that are not written are not given here. 2Nal = N[C@@H](Cc1ccc2ccccc2c1)C(=O)O; BMB″ = not defined here
What was measured:
GST-NEMO(1-196), Q9Y6K9 = target: T1, GST-NEMO(1-196), Q9Y6K9; experiment: HTRF competition: GST-NEMO (30 nM) + biotin-IKKβKK/RR(701-745) (50 nM), 5 mM TCEP
T1 chain: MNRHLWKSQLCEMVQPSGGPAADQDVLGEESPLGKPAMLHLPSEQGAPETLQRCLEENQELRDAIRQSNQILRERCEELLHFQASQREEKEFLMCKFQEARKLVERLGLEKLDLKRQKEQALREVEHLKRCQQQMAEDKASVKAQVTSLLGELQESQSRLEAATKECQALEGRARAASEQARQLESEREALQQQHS

[1] = target: NEMO (endogenous, in NF-κB reporter (Luc)-HEK293 cells), Q9Y6K9; experiment: cell-based or functional assay

- IC50 (GST-NEMO(1-196), Q9Y6K9): 3.5 µM
- TNFα-induced luciferase activity, NF-κB reporter (Luc)-HEK293 cells, IC50 [1]: 20 µM
B1: bicyclic peptide 4 (peptide)
peptide: RRRR[2Nal]FCALDWSWLQC
modifications: linker 7-16 via BMB″ (inferred); not fully specified (bridges); reading uncertain
